Test system: MS2 coat protein
Experiment: apparent KD of MS2 coat protein; designed switch direction (-1 OFF switch, 1 ON switch): -1; higher = weaker reporter binding
Outline: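 Designed RNA switches with common flanks were transcribed on Illumina chips by stalled E. coli RNA polymerase and titrated with SNAP-549-labelled MS2 coat protein, from 0.7 or 1.5 nM doubling to 3 µM, in Tris-HCl pH 7.5 buffer with KCl, MgCl2, BSA, DTT, tRNA and Tween-20. Steps lasted 0.8–1.5 h (lowest) to 10–20 min (highest). Titrations ran without input, with 200 uM small-molecule ligand, or with an oligonucleotide input. Normalised cluster fluorescence was curve-fitted, and apparent KD is the per-design median over clusters.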

[1] = input ligand: microRNA oligo, concentration not stated
[2] = Eterna round: R95, input ligand: microRNA oligo, concentration not stated
[3] = Eterna round: R95, input ligand: FMN 200 uM
[4] = Eterna round: R95, input ligand: none

Sequence | apparent KD of MS2 coat protein (input ligand: FMN 200 uM) | apparent KD of MS2 coat protein [1] | apparent KD of MS2 coat protein (input ligand: none) | apparent KD of MS2 coat protein [2] | apparent KD of MS2 coat protein [3] | apparent KD of MS2 coat protein [4]
ACAUGUCAUCGAGGAUAUUGGACACAUGAGGAUCACCCAUGUACUCGGAUGCUCUACCAUGAGUUCGAGAAGGCGAUGUACAUU [Ex NG2 #78] (Eterna round: R96, puzzle: Exclusion NG 2) | 31.9 nM | 94.3 nM | 181 nM |  |  | 
UUCCUACAUGAGGAUCACCCAUGUCAGGAUAUCUCCUCGUCGCCAAUGGGCGACGAAUAGAGAAGGGACAGGAA [Rerizaatra] (puzzle: Exclusion 1) |  |  |  | 13.1 nM |  | 
GUUGUGCGAGGAUAUAUGUGAGGUUUGCCUCAACAGGUAAUACAUGAGGAUCACCCAUGUAGAAGGCGCAUGAG [S1-(23.6);S2-(22.1) [87C]] (Eterna round: R96, puzzle: Exclusion 2) | 248 nM | 45 nM | 63.9 nM |  |  | 
UUAUAUAGAGUGAGGAUAUGCUGGUCCUUGGAUCAGCAGAAGGCACAUGAGGAUCACCCAUGUAAUAUAUUAUU [Mat - Exclusion 4 - JL Mod - D37] (puzzle: Brourd's mod of Exclusion 4) |  |  |  | 21.1 nM |  | 
ACUUACUGAGGAUAUGCGUGGAUAAACAUGAGGAUCACCCAUGUUCCUAUAAGUAUGUAUGUAGAAGGCAGAAGAA [JR_Ex5_Sub075] (Eterna round: R97, puzzle: Exclusion 5) | 60.5 nM |  | 130 nM |  |  | 
GGUUGGCGAGGAUAUACAUGAGGAUCACCCAUGUGAGAGAAAAGAGUGAGGAAGAAAAGUAGAAGGCGCUGACG [salish99_ex3_r3_006] (puzzle: Exclusion 3) |  |  |  | 69.8 nM | 55.9 nM | 76.1 nM
UUUUAACAUGAGGAUCACCCAUGUGAGGAUAUCGUAUUUUUUAUUAAUAUUAAUAAAACGAGAAGGCACAUUUU [JMF 17] (Eterna round: R96, puzzle: Exclusion 1) | 96.9 nM | 51.4 nM | 65.5 nM |  |  | 
AAACCUCGUGUAAGGAUAUCAAGGCUUAGCGGGUGUGAGAAGGUACAUGAGGAUCACCCAUGUCAUGAUUUACG [mod2 score 1 eternabot] (Eterna round: R97, puzzle: Brourd's mod of Exclusion 4) | 798 nM |  | 252 nM |  |  | 
UUUAAUUUUUUUUUUUUACAAGCUUUUUGCUCGUCUUAUACAUGAGGAUCACCCAUGUGGGUGAGAAAUGAAUUAUC [JMF 93] (puzzle: Sensor v3, turn-off variant 2) |  |  |  | 10.2 nM | 59.9 nM | 76.8 nM
GCAGCAUAGUUUACUAACUGUUACAUGAGGAUCACCCAUGUUCAGGAUAUGGUCUGGAUUACAGGCCAGAAGGGAACAAGCUGC [Eli exng3 - 026] (Eterna round: R96, puzzle: Exclusion NG 3) | 7.64 nM | 8.42 nM | 11.3 nM |  |  | 
CAAACCAGAGGAUAUGCGCAUAGAUCAGACUUUGUUUCUUAACAUGAGGAUCACCCAUGUAGAAGGCUGUAAAC [Ex2 #74] (Eterna round: R97, puzzle: Exclusion 2) | 12.3 nM |  | 13.3 nM |  |  | 
UUAUUAUAUGUAGGAUAUGCAUAUUAUUAUUAUGCAGAAGGACAUGAGGAUCACCCAUGUAUAUUAUUAUUAUAUAUUAUAUAU [Title] (Eterna round: R96, puzzle: Exclusion NG 1) |  | 23.6 nM |  |  |  | 
AAUAUACUAGGAUAUACAUGAGGAUCACCCAUGUCCGCAUAUUGGGAUCUUAGACCUUGUAGAAGGAGUGGACG [Eternabot (L2) Solution 15] (Eterna round: R97, puzzle: Exclusion 3) | 99.2 nM |  | 97.6 nM |  |  | 
CAUAGUUACUCAGGAUAUCUUACAUGAGGAUCACCCAUGUAAUAAAUGAGAAUUUCGAAUGUAUAAGAGAAGGGAGAAAUCUAC [Ostracism 58 - Jieux - Exclusion NG 2] (Eterna round: R96, puzzle: Exclusion NG 2) | 15.9 nM | 14 nM | 17.6 nM |  |  | 
AAUUAAUAUCAGGAUAUGACGUGCUUCGGCACGUCAGAAGGGAUGACAUGAGGAUCACCCAUGUGAUCAAUUAA [E6/1-A1] (Eterna round: R97, puzzle: Exclusion 6) | 105 nM |  | 28.6 nM |  |  | 
AUGAGGUUAGGAUAUACAUGAGGAUCACCCAUGUUGGAGGGUAAGGUAGGAGAAGAAAGUAGAAGGAACGGAGC [JR_Exclu3_Sub058] (puzzle: Exclusion 3) |  |  |  | 82.5 nM | 68.4 nM | 99.6 nM
UUUUAUUGCAAGGAUAUGCAAUUUAUUAUUUAUGCAGAAGGUGCUACAUGAGGAUCACCCAUGUUUCUGGGUUU [JR_E6_Sub044] (puzzle: Exclusion 6) |  |  |  | 91.8 nM | 253 nM | 86.7 nM
